Results as given in paper PMC12955825 (Med (New York, N.Y.), 2025).
Bridge positions count the residues as written; N and C are the ends. Ends that are not written are not given here.

How the values were obtained:
[1] = molecular target: HSP27, human recombinant protein (human, UniProt P04792 1-205); assay: phage-binding assay
[2] = molecular target: T1, CALR, human recombinant protein (human, UniProt P27797 18-417); assay: circular dichroism
T1 sequence (looked up): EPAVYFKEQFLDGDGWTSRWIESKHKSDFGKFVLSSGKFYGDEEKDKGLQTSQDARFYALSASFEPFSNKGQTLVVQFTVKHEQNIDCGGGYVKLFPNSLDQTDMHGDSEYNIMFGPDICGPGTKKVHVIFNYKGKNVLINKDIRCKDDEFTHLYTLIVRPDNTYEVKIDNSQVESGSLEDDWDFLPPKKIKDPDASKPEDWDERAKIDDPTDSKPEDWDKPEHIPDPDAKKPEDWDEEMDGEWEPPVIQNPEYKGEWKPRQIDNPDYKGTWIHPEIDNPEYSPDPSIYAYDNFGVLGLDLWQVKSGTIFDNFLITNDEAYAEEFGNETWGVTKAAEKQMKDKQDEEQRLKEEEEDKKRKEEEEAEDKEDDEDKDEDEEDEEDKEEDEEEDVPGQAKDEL

[3] = molecular target: T2, CASQ1, human recombinant protein (human, UniProt P31415 35-396); assay: phage-binding assay
T2 sequence (looked up): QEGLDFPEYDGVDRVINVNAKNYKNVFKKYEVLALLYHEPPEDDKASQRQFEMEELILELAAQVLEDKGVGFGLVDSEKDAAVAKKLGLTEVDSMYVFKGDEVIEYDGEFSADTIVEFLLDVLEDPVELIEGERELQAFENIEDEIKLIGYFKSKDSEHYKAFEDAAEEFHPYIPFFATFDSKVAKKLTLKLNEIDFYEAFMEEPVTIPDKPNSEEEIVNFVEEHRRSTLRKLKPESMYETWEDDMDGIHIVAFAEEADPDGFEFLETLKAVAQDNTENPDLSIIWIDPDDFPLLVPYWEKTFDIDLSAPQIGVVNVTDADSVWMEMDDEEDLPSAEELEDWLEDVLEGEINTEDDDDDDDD

[4] = molecular target: T3, histidine-rich glycoprotein (human, UniProt P04196 19-525); assay: phage-binding assay
T3 sequence (looked up): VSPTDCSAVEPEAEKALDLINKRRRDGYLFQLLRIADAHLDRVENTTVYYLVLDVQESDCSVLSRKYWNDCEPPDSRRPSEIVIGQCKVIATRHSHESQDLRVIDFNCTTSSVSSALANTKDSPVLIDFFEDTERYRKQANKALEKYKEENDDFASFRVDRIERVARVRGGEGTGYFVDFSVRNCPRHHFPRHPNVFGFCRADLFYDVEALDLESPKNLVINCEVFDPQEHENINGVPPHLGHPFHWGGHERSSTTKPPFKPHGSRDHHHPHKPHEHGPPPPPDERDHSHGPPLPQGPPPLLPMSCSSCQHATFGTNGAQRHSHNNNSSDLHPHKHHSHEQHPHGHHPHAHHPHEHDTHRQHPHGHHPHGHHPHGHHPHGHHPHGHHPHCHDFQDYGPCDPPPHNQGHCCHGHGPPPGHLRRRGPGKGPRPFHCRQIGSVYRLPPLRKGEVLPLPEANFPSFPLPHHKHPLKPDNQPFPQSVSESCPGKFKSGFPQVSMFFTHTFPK

[5] = molecular target: T4, cystatin-A (human, UniProt P01040 1-98); assay: phage-binding assay
T4 sequence (looked up): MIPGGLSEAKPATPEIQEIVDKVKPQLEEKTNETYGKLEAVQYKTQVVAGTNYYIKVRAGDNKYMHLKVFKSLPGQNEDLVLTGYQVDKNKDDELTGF

Sequence of HSP27, human recombinant protein (P04792 whole entry): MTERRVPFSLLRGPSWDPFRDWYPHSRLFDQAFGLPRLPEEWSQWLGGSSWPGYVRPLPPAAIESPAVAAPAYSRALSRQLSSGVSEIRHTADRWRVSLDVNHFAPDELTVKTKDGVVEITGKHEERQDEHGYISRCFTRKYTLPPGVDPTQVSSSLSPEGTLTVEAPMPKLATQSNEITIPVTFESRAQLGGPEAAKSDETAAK

CSEIGVRAC (disulfide 1-9) [CSEIGVRAC peptide (C1-C9 disulfide bridge)]: binds [1].

CRQRPASGC (disulfide 1-9) [CRQRPASGC peptide (C1-C9 disulfide bridge)]: binds [2].

CLRGFPALVC (disulfide 1-10) [CLRGFPALVC peptide (C1-C10 disulfide bridge)]: binds [3].

CVGQVGGRRC (disulfide 1-10) [CVGQVGGRRC-displaying phage]: binds [4].

CEARASGSRC (disulfide 1-10) [CEARASGSRC-displaying phage]: binds [5].
